{"source": "paper PMC10322149", "key": {"Homer3, Q9NSC5": {"biological_target": "T1, Homer3, Q9NSC5", "T1 chain": "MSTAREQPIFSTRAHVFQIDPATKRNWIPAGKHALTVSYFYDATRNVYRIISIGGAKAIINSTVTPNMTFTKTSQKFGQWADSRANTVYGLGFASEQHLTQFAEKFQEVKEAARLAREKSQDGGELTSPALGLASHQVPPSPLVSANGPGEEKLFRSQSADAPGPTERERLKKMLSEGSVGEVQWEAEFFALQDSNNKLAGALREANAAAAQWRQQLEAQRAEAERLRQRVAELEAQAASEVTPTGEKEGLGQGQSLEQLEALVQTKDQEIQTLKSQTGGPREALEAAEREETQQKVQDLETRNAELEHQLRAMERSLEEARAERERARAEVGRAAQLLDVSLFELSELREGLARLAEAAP", "test": "SEC-MALS; FPLC coupled with static light scattering; Superose 12 10/300 GL; 50 mM Tris pH 8.0, 100 mM NaCl, 1 mM EDTA, 1 mM DTT; Homer3 and Pi-Homer3 at 50 μM", "conditions": "remark: other sources report otherwise"}, "[1]": {"biological_target": "T2, Pi-Homer3 (Homer3 phosphorylated by CaMKIIα), Q9NSC5", "T2 chain": "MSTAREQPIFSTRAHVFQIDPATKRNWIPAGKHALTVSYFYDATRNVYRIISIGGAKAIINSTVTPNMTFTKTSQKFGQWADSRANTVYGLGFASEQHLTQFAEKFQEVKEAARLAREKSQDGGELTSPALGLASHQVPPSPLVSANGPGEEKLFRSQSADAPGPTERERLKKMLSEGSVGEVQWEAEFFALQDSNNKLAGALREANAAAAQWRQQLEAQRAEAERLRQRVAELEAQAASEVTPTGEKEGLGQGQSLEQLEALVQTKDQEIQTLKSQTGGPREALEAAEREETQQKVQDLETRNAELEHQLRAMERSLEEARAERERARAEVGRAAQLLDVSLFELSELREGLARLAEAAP", "test": "SEC-MALS; FPLC coupled with static light scattering; Superose 12 10/300 GL; 50 mM Tris pH 8.0, 100 mM NaCl, 1 mM EDTA, 1 mM DTT; Homer3 and Pi-Homer3 at 50 μM", "conditions": "remark: other sources report otherwise"}}}
{"binder": "Homer3, Q9NSC5 1-361 (natural protein) MSTAREQPIFSTRAHVFQIDPATKRNWIPAGKHALTVSYFYDATRNVYRIISIGGAKAIINSTVTPNMTFTKTSQKFGQWADSRANTVYGLGFASEQHLTQFAEKFQEVKEAARLAREKSQDGGELTSPALGLASHQVPPSPLVSANGPGEEKLFRSQSADAPGPTERERLKKMLSEGSVGEVQWEAEFFALQDSNNKLAGALREANAAAAQWRQQLEAQRAEAERLRQRVAELEAQAASEVTPTGEKEGLGQGQSLEQLEALVQTKDQEIQTLKSQTGGPREALEAAEREETQQKVQDLETRNAELEHQLRAMERSLEEARAERERARAEVGRAAQLLDVSLFELSELREGLARLAEAAP", "values": [{"measurement": "stoichiometry N", "setting": "Homer3, Q9NSC5", "value": 4}]}
{"binder": "Pi-Homer3 (Homer3 phosphorylated by CaMKIIα), Q9NSC5 1-361 (natural protein, here or on the partner: phosphorylated by CaMKIIα at Ser residues in the central linker region (positions not given); phosphorylated by CaMKIIα at Ser residues in the central linker region (positions not given)) MSTAREQPIFSTRAHVFQIDPATKRNWIPAGKHALTVSYFYDATRNVYRIISIGGAKAIINSTVTPNMTFTKTSQKFGQWADSRANTVYGLGFASEQHLTQFAEKFQEVKEAARLAREKSQDGGELTSPALGLASHQVPPSPLVSANGPGEEKLFRSQSADAPGPTERERLKKMLSEGSVGEVQWEAEFFALQDSNNKLAGALREANAAAAQWRQQLEAQRAEAERLRQRVAELEAQAASEVTPTGEKEGLGQGQSLEQLEALVQTKDQEIQTLKSQTGGPREALEAAEREETQQKVQDLETRNAELEHQLRAMERSLEEARAERERARAEVGRAAQLLDVSLFELSELREGLARLAEAAP", "values": [{"measurement": "stoichiometry N", "setting": "[1]", "value": 4}]}
